Among the data in paper PMC8168016 are fold increase of Kd against AncSR1-LBD and stoichiometry N values, retold here.

The target in assay [1] is AncSR1-LBD 184E (dimerization-interface mutant with a non-historical charge-repulsion mutation). The assay can be described thus: native MS.
The target of assay [2] is AncSR1-LBD L180F/A181Y/M185K (dimerization-interface mutant with three historical substitutions). The assay can be described thus: native MS.
In assay [3] the target is AncSR1-LBD fused to the CTE of AncSR2-LBD. The assay can be described thus: SEC-MALS.

In turn, “AncSR1-LBD 184E (dimerization-interface mutant with a non-historical charge-repulsion mutation) (domain or fragment)” yielded a fold increase of Kd against AncSR1-LBD in assay [1] greater than 20 fold. “AncSR1-LBD L180F/A181Y/M185K (dimerization-interface mutant with three historical substitutions) (domain or fragment)” yielded a fold increase of Kd against AncSR1-LBD in assay [2] greater than 20 fold. For “AncSR1-LBD fused to the CTE of AncSR2-LBD (domain or fragment)”, the stoichiometry N (commonly a count of units in the complex or per binding partner) in assay [3] stood at 2.
